Key:
Test in all cases: MST; 2-hep HMM with C-terminal eGFP (fluorescence followed) titrated with increasing concentrations of unlabeled proximal S2; 23 °C; 10 mM imidazole pH 7.5, 100 mM KCl, 1 mM EDTA, 2 mM MgCl2, 1 mM DTT, 500 mM ADP, 0.05% Tween; MST power 60; isotherms fitted with the Hill equation
[1] = molecular target: R719W recombinant human β-cardiac myosin 2-hep HMM (UniProt P08590)
[2] = molecular target: WT recombinant human β-cardiac myosin 2-hep HMM (UniProt P08590)
[3] = molecular target: D382Y recombinant human β-cardiac myosin 2-hep HMM (UniProt P08590)

Kd [1]: 58 µM
Kd [2]: 37 µM
Kd [3]: 45 µM
Substance: proximal S2 (amino acids 839–968) of human β-cardiac myosin (from UniProt P12883 839-968) (domain or fragment)

Reference: paper PMC6582153
